Reference: the DeepSol protein solubility set

Assay: soluble on expression in E. coli; label from the status in PepcDB or PDB records
For “MFDIILEIVILLFNLLIQNLISLIKYALPYSLLPKKDLYRKKVLITGAGNGLGKLLAQKFAARGATLILWDINLQSVDELKNEIRGNQGEAHSYEVNLCDPGKIAQVGQQVINDIGKVDILVNNAGIATAKMILDSSENEINRSFDVNVKAHFYTVQQFLPAMLKDNNGHIVTIASAAGKMGSSGLADYSSTKHAAVGFHDSLVAEIMESEKNGVKTTLVCPYYVHTSMFDATGAATRFPWIFPILDTDYVVQKIFEAIETEQEFLVTPRAFYLVFAGIQILPYKAQAMVAQFFGLVQNLERFHK”, the “soluble on expression in E. coli” value was “not soluble”. In the case of “VFRQTFLEFSQRTVSQARLDIGRKKLQELSSTFARAENEFGVPAGVIAAFWAMETDFGAVQGDFNTRNALVTLSHDCRRPELFRPQLLALIEMVQHGDLDPATNTGAWAGEIGQVQMLPKDIIAFGVDGDGNGHINVKDSAPDAILTAAKFIQHLGFKKGEPWMQEVSVPENLPWEKSGLGGSLTAGDWFALGVTPRDGNKNFASLPAALIMPQGRKGPTFITYPNFNIYLEWNQSFIYTTSAAYFANRLMGAPVY”, the “soluble on expression in E. coli” value is reported as “not soluble”. In the case of “MPSPSGGWGCGGTWARGVDGARLFSIHHQAVRPNLSTISPPKEPPMIEVRHLCKSFARKPAVQDISFSIPAGEIVGYLGPNGAGKSTTIKVLTGLLVPDSGEVRVGGLVPWKQRRQHVARLGAVFGQRTTLWWDLPVRESLELLRHVYRVPAARFAENLAGFTELLELGPFLNTPARALSLGQRMRADLAAALLHDPELLFLDEPTVGLDVVAKERIREFVKAVNAERGVTVLLTTHDLGDVERLARRVMMIDTGRLLFDGPLAELQARYGGERELWVEFEKAPAQPALPGLTLLGQDGPRVRYGFSGAAAAPIAQVTALAPVRDLAVKEPEVEATIRRIYEGNLLGSRSVREGLEHHHHHH”, the “soluble on expression in E. coli” value is reported as “not soluble”. With “AIAVHQASPVKNISDTRPKRSPEYWYYYCTYEDNSVKSPLVPGLKVETQAVADRFSADIFSAVERYNQLFSEVQKQSFKYVPEEESDNQSN” the “soluble on expression in E. coli” value was “soluble”. With “MSLRFDGKVAIVTGAGGGLGKTYALELAKRGCKVVVNDLGGDRHGTSSSSSMADKVVQEIKSAGGQAVANYDSVEFGDKIVKTAIDNFGRIDIVINNAGILRDVSFLKMTELDWDLIFKVHVKGAYAVTKAAWPYMRDQKYGRIVVTSSNAGVHGNFGQANYAAAKSALIGLSNSLAQEGAKYNILANTLVPTAGSRLTETVMPQNLVDALKPDYVTPLVTYMVHDSFEESGKVFEAGAGWYGTIQYYKSKGKVISHASADDIAKNWSTITNMNGAEYIGTITEQSARLVSILEEHEASSGSSSASSGASSGGAFPSNIRSSALFQEMADGVKADPTAVKTLKSIVLYIITDGKNELGKFTLDFKSASPSVYLGDVKNGEKANATVTVADSDFVDIAAGKLNAQKAFMSGKLKVKGNVMLLQKLQTVLEKAKKSKL” the “soluble on expression in E. coli” value was “not soluble”. With “MGSDKIHHHHHHMNINFENHGGNIEKEARQLGLSTENIIDASASIVPFKLPKKLNNYLINSIKNRSIRSYPDSSYFEVRNAISKWHNIEPSMILPGNGASELFTWAARDASLNGISSLPSPGFGDYQRALKCWNATYVHNPLPLSWTNNNPQSFPIEPKANVLWITNPHNPTGQLWSRSSIENLLANYKLVICDEAFISLVPGGESQSIIDLTNIYKNLIVIRSLTKFLGIAGLRVGYAVTNSDRLLKWKEIRDPWPVNTLAINATKMIMKDSKMHKKRLNKIHRWVEKEGKWLYQSLSSFSTIKPLPSTTNFQLIKSESSILNLLENLKKRGILLRDCRSFINLDEKWFRISLLKREQNIQIINTLKDYIN” the “soluble on expression in E. coli” value was “not soluble”. With “MKKKLVGVECLNEYICQSSNKLYADSSVILTPGARDELSRRGVTVVYGPRPESGEAPAACPPGCTCPACTAAKADSGLEQLLFAVAAMLKTEYGITDPEELKNLSCQALRTIKANL” the “soluble on expression in E. coli” value was “not soluble”. In the case of “MNPKHSCTNFGADIPVNSQLIVTTSELRQKLKEKNKFILVDNRTWDEHIGKVSGYTYYDKKGRIPGALYGHSGSDSVSLEEYRNIDNTMRNKYEILEMWDKENIDVNKQLIFMCGSGWRAAEVLTYANVIGVENTSLYSDGWMGWSLDNSNLIEVGEHKLEHHHHHH”, the “soluble on expression in E. coli” value is reported as “not soluble”. With “MGSDKIHHHHHHMTALVCLTGSSCTDDENNGQGNNIIYGENIIGNGEQTFEIKDHQYLKRGTYLMKGWCYVTYGSTLTIEAGTVIKGDKETRAALIVEPGGKLIARGTVDAPIVFTSEMPAGKRKPGDWGGLILCGYARNNEDIMQIEGGPRTMHGGPNNADNSGVLSYVRVEFAGYPFKKNQEINGITFGSVGNGTQIDHLQVSYANDDAFEWFGGTVHAEYLVAYHCWDDDFDIDNGYSGTCRHLLGIRHPRIADITGSHAFECSNNGTNTPATPTTAATFEDVTIYGPASGDASFVNHPDFINGGGLRPENESMLGLFGAALYMGNNTSVTFRNCRISGYPSDMEGTPASADNVVFSEREETGYPEWTQGWCNFNPQETEY” the “soluble on expression in E. coli” value was “not soluble”. For “MSSSDTFEKLYIEQHDAPSEEQVEEWLATGEVLKLEQIVLDGRGHMLREKKTVNASSNEFLSGLTQYLTKIDAIHKAVEEGDVRRVKSLIDRPLLSTARDNYGMTPIHKALLHGQTNTVRFLLGRFPSCVNATDHRIFGILVDSVSNGVFNKSPLKKNAGRTPLHYAAADPNGEHMIKVLQKSGGDAFIEDKHGHTPFYYRTHGQRLNVRSMKDNAVMNQLISGQLSRPLLQDLEEDIYDWIHTGNIGKLEELVLTGYADLLLGRNHEVDDADSIGFLEVLPQYQAKIQSIHKAVETGNLRAVKLLTDRKKLSLCRDTRGLSPLHKAIVFERTDIAKYLIRNYPQSVNAMDQKKRTPLHYAAALKDGGYLYKVMRKSGADPNIYDCNGRPAKYYLKHTGEIDLSAMRLDTRAALKQVLHNRVAPSYLESSIQQWLRDGQLAKLEQLVLSGCGDLLQSRTSTHTETQAFLDRLPDYMDKIDGIHKSIKEGNLDKVKELMKTKKLAIARDRFGCTPLHSAVVHEHTEIVRYIAGHYNSVLNAPDYNKRTAMHYAAAARDGGHYLKILGKAGADPMAVDNEGRTPDYYRRNAVIDLKLIKDRDEDFETINEEYLEDGPLIDSPATPDSGSEGSFIDSARMLDDEDESIERHRFEKAFRGKIDLPTSENGVYLARTVAPVLTKALAEVLLRRPADPIGFIAEWLSKYVVEIPRHNGSH”, the “soluble on expression in E. coli” value was “not soluble”. With “MKKLKMASCALVAGLMFSGLTPNAFAEDKISDVKSQINTQNDTLHKQQQERDELQKQMNDLNKTIQGLDKSVQENAAKLDETTKKVADTEQLIEKKNKDIAELQTKIAKREELLRKRLVALQEQPNTNVVTEVLVNSKNVADLVDRLTSVSKILESDEDIMKTQQEDQANVKKDVETVKTKQKELKEAQAQIETAKKELDAEKAKKATAVNDLSGKMDTVVTSMTSTESQLKDLEKQALQLQRIAEQEAQEKAAQEAAAQKQAEQAAKDAQAQPAQAAPAQPAAPANNGGQAQKEEPKKEEPKKEAPKKEDKKPEPTPGPAPAPGVIGKAQQYLGLPYVWGSASPSNGGFDCSGFISYVFGVGRQDVNGYWHSVSKVSSPQPGDLVFFQNTYKNGPSHIGIYVGNGQMIHAGDKGIAYSSLSSSYNQKHFLGYGRF” the “soluble on expression in E. coli” value was “not soluble”. With “MDQLSEKQIWYYHIIPEYQTEKSFYACVRRSGMIKFDTFYFPHMLSARETQRSIKFGDGVWSGCLYDPDIYTDGKISIQGVGGVLFPREAEIGGCVCLCLIFLIKLGLSTKYMKSHVSFDVSCDL” the “soluble on expression in E. coli” value was “not soluble”. With “MGSDKIHHHHHHMLYLIGLGLSYKSDITVRGLEAIKKCSRVYLEHYTSILMAASQEELESYYGKEIILADRELVETGSKQILNNADKEDVAFLVVGDPFGATTHTDLVLRAKREAIPVEIIHNASVMNAVGACGLQLYNFGQTVSMVFFTDNWRPDSWYDKIWENRKIGLHTLVLLDIKVKEQSIENMARGRLIYEPPRYMSIAQCCEQLLEIEEKRGTKAYTPDTPAVAISRLGSSSQSFKSGTISELANYDSGEPLHSLVILGRQCHELELEYLLEFADDKEKFGKDVANDQEYFKPAAWVPPTEDDSDE” the “soluble on expression in E. coli” value was “not soluble”.
